US20110118447A1

How the values were obtained:
[1] = molecular target: binding partner (antigen) of C5A (XPA23); assay: Biacore, K-off, fold vs original
[2] = molecular target: binding partner of C5A (XPA23); assay: Biacore

| Binder | fold difference in affinity vs original [1] | fold affinity vs original [2] | fold difference in affinity vs original [2] |
| --- | --- | --- | --- |
| C5A (XPA23) VH V99F (antibody, V domains shown) VH: EVQLLESGGGLVQPGGSLRLSCAASGFTFSKYFMFWVRQAPGKGLEWVSVISPSGGMTRYADSVKGRFTISRDNSKNTLYLQMNSLRAEDTAVYYCARFGYGGNSDYWGQGTLVTVSS VL: DIQMTQSPSSVSASVGDRLTIICRASQDINRWLAWYQQTPGNAPKLLIHSATSLQSGVPSRFSGSGSGTDFTLTINSLQPEDFATYYCQQADSFPLTFGGGTKVEIK | 0.03 fold | 0.03 fold |  |
| C5A (XPA23) VH G100W (antibody, V domains shown) VH: EVQLLESGGGLVQPGGSLRLSCAASGFTFSKYFMFWVRQAPGKGLEWVSVISPSGGMTRYADSVKGRFTISRDNSKNTLYLQMNSLRAEDTAVYYCARVWYGGNSDYWGQGTLVTVSS VL: DIQMTQSPSSVSASVGDRLTIICRASQDINRWLAWYQQTPGNAPKLLIHSATSLQSGVPSRFSGSGSGTDFTLTINSLQPEDFATYYCQQADSFPLTFGGGTKVEIK | 0.05 fold | 0.05 fold |  |
| C5A (XPA23) VH G103A (antibody, V domains shown) VH: EVQLLESGGGLVQPGGSLRLSCAASGFTFSKYFMFWVRQAPGKGLEWVSVISPSGGMTRYADSVKGRFTISRDNSKNTLYLQMNSLRAEDTAVYYCARVGYGANSDYWGQGTLVTVSS VL: DIQMTQSPSSVSASVGDRLTIICRASQDINRWLAWYQQTPGNAPKLLIHSATSLQSGVPSRFSGSGSGTDFTLTINSLQPEDFATYYCQQADSFPLTFGGGTKVEIK | 0.03 fold |  | 0.03 fold |
| C5A (XPA23) VH S105I (antibody, V domains shown) VH: EVQLLESGGGLVQPGGSLRLSCAASGFTFSKYFMFWVRQAPGKGLEWVSVISPSGGMTRYADSVKGRFTISRDNSKNTLYLQMNSLRAEDTAVYYCARVGYGGNIDYWGQGTLVTVSS VL: DIQMTQSPSSVSASVGDRLTIICRASQDINRWLAWYQQTPGNAPKLLIHSATSLQSGVPSRFSGSGSGTDFTLTINSLQPEDFATYYCQQADSFPLTFGGGTKVEIK | 0.07 fold |  | 0.07 fold |
| C5A (XPA23) VH S105F (antibody, V domains shown) VH: EVQLLESGGGLVQPGGSLRLSCAASGFTFSKYFMFWVRQAPGKGLEWVSVISPSGGMTRYADSVKGRFTISRDNSKNTLYLQMNSLRAEDTAVYYCARVGYGGNFDYWGQGTLVTVSS VL: DIQMTQSPSSVSASVGDRLTIICRASQDINRWLAWYQQTPGNAPKLLIHSATSLQSGVPSRFSGSGSGTDFTLTINSLQPEDFATYYCQQADSFPLTFGGGTKVEIK | 1.25 fold | 1.25 fold |  |
| C5A (XPA23) VH S105A (antibody, V domains shown) VH: EVQLLESGGGLVQPGGSLRLSCAASGFTFSKYFMFWVRQAPGKGLEWVSVISPSGGMTRYADSVKGRFTISRDNSKNTLYLQMNSLRAEDTAVYYCARVGYGGNADYWGQGTLVTVSS VL: DIQMTQSPSSVSASVGDRLTIICRASQDINRWLAWYQQTPGNAPKLLIHSATSLQSGVPSRFSGSGSGTDFTLTINSLQPEDFATYYCQQADSFPLTFGGGTKVEIK | 0.84 fold |  | 0.84 fold |
| C5A (XPA23) VH S105V (antibody, V domains shown) VH: EVQLLESGGGLVQPGGSLRLSCAASGFTFSKYFMFWVRQAPGKGLEWVSVISPSGGMTRYADSVKGRFTISRDNSKNTLYLQMNSLRAEDTAVYYCARVGYGGNVDYWGQGTLVTVSS VL: DIQMTQSPSSVSASVGDRLTIICRASQDINRWLAWYQQTPGNAPKLLIHSATSLQSGVPSRFSGSGSGTDFTLTINSLQPEDFATYYCQQADSFPLTFGGGTKVEIK | 0.08 fold |  | 0.08 fold |
| C5A (XPA23) VH N104A (antibody, V domains shown) VH: EVQLLESGGGLVQPGGSLRLSCAASGFTFSKYFMFWVRQAPGKGLEWVSVISPSGGMTRYADSVKGRFTISRDNSKNTLYLQMNSLRAEDTAVYYCARVGYGGASDYWGQGTLVTVSS VL: DIQMTQSPSSVSASVGDRLTIICRASQDINRWLAWYQQTPGNAPKLLIHSATSLQSGVPSRFSGSGSGTDFTLTINSLQPEDFATYYCQQADSFPLTFGGGTKVEIK | 1.61 fold |  | 1.61 fold |
| C5A (XPA23) VH N104L (antibody, V domains shown) VH: EVQLLESGGGLVQPGGSLRLSCAASGFTFSKYFMFWVRQAPGKGLEWVSVISPSGGMTRYADSVKGRFTISRDNSKNTLYLQMNSLRAEDTAVYYCARVGYGGLSDYWGQGTLVTVSS VL: DIQMTQSPSSVSASVGDRLTIICRASQDINRWLAWYQQTPGNAPKLLIHSATSLQSGVPSRFSGSGSGTDFTLTINSLQPEDFATYYCQQADSFPLTFGGGTKVEIK | 1.19 fold |  | 1.19 fold |
| C5A (XPA23) VH G103V (antibody, V domains shown) VH: EVQLLESGGGLVQPGGSLRLSCAASGFTFSKYFMFWVRQAPGKGLEWVSVISPSGGMTRYADSVKGRFTISRDNSKNTLYLQMNSLRAEDTAVYYCARVGYGVNSDYWGQGTLVTVSS VL: DIQMTQSPSSVSASVGDRLTIICRASQDINRWLAWYQQTPGNAPKLLIHSATSLQSGVPSRFSGSGSGTDFTLTINSLQPEDFATYYCQQADSFPLTFGGGTKVEIK | 2.56 fold |  | 2.56 fold |
| C5A (XPA23) VH N104V (antibody, V domains shown) VH: EVQLLESGGGLVQPGGSLRLSCAASGFTFSKYFMFWVRQAPGKGLEWVSVISPSGGMTRYADSVKGRFTISRDNSKNTLYLQMNSLRAEDTAVYYCARVGYGGVSDYWGQGTLVTVSS VL: DIQMTQSPSSVSASVGDRLTIICRASQDINRWLAWYQQTPGNAPKLLIHSATSLQSGVPSRFSGSGSGTDFTLTINSLQPEDFATYYCQQADSFPLTFGGGTKVEIK | 1.27 fold |  | 1.27 fold |
| C5A (XPA23) VH N104G (antibody, V domains shown) VH: EVQLLESGGGLVQPGGSLRLSCAASGFTFSKYFMFWVRQAPGKGLEWVSVISPSGGMTRYADSVKGRFTISRDNSKNTLYLQMNSLRAEDTAVYYCARVGYGGGSDYWGQGTLVTVSS VL: DIQMTQSPSSVSASVGDRLTIICRASQDINRWLAWYQQTPGNAPKLLIHSATSLQSGVPSRFSGSGSGTDFTLTINSLQPEDFATYYCQQADSFPLTFGGGTKVEIK | 1.21 fold |  | 1.21 fold |
| C5A (XPA23) VH S105G (antibody, V domains shown) VH: EVQLLESGGGLVQPGGSLRLSCAASGFTFSKYFMFWVRQAPGKGLEWVSVISPSGGMTRYADSVKGRFTISRDNSKNTLYLQMNSLRAEDTAVYYCARVGYGGNGDYWGQGTLVTVSS VL: DIQMTQSPSSVSASVGDRLTIICRASQDINRWLAWYQQTPGNAPKLLIHSATSLQSGVPSRFSGSGSGTDFTLTINSLQPEDFATYYCQQADSFPLTFGGGTKVEIK | 0.12 fold |  | 0.12 fold |

Second part, the binder after the results:

| fold difference in affinity vs original [1] | fold affinity vs original [2] | fold difference in affinity vs original [2] | Binder |
| --- | --- | --- | --- |
| 0.09 fold |  | 0.09 fold | C5A (XPA23) VH Y101V (antibody, V domains shown) VH: EVQLLESGGGLVQPGGSLRLSCAASGFTFSKYFMFWVRQAPGKGLEWVSVISPSGGMTRYADSVKGRFTISRDNSKNTLYLQMNSLRAEDTAVYYCARVGVGGNSDYWGQGTLVTVSS VL: DIQMTQSPSSVSASVGDRLTIICRASQDINRWLAWYQQTPGNAPKLLIHSATSLQSGVPSRFSGSGSGTDFTLTINSLQPEDFATYYCQQADSFPLTFGGGTKVEIK |
| 0.85 fold | 0.85 fold |  | C5A (XPA23) VH Y101F (antibody, V domains shown) VH: EVQLLESGGGLVQPGGSLRLSCAASGFTFSKYFMFWVRQAPGKGLEWVSVISPSGGMTRYADSVKGRFTISRDNSKNTLYLQMNSLRAEDTAVYYCARVGFGGNSDYWGQGTLVTVSS VL: DIQMTQSPSSVSASVGDRLTIICRASQDINRWLAWYQQTPGNAPKLLIHSATSLQSGVPSRFSGSGSGTDFTLTINSLQPEDFATYYCQQADSFPLTFGGGTKVEIK |
| 0.04 fold |  | 0.04 fold | C5A (XPA23) VH Y101P (antibody, V domains shown) VH: EVQLLESGGGLVQPGGSLRLSCAASGFTFSKYFMFWVRQAPGKGLEWVSVISPSGGMTRYADSVKGRFTISRDNSKNTLYLQMNSLRAEDTAVYYCARVGPGGNSDYWGQGTLVTVSS VL: DIQMTQSPSSVSASVGDRLTIICRASQDINRWLAWYQQTPGNAPKLLIHSATSLQSGVPSRFSGSGSGTDFTLTINSLQPEDFATYYCQQADSFPLTFGGGTKVEIK |
| 0.81 fold | 0.81 fold |  | C5A (XPA23) VH Y101W (antibody, V domains shown) VH: EVQLLESGGGLVQPGGSLRLSCAASGFTFSKYFMFWVRQAPGKGLEWVSVISPSGGMTRYADSVKGRFTISRDNSKNTLYLQMNSLRAEDTAVYYCARVGWGGNSDYWGQGTLVTVSS VL: DIQMTQSPSSVSASVGDRLTIICRASQDINRWLAWYQQTPGNAPKLLIHSATSLQSGVPSRFSGSGSGTDFTLTINSLQPEDFATYYCQQADSFPLTFGGGTKVEIK |
| 1.91 fold |  | 1.91 fold | C5A (XPA23) VH Y101L (antibody, V domains shown) VH: EVQLLESGGGLVQPGGSLRLSCAASGFTFSKYFMFWVRQAPGKGLEWVSVISPSGGMTRYADSVKGRFTISRDNSKNTLYLQMNSLRAEDTAVYYCARVGLGGNSDYWGQGTLVTVSS VL: DIQMTQSPSSVSASVGDRLTIICRASQDINRWLAWYQQTPGNAPKLLIHSATSLQSGVPSRFSGSGSGTDFTLTINSLQPEDFATYYCQQADSFPLTFGGGTKVEIK |
| 0.83 fold |  | 0.83 fold | C5A (XPA23) VH Y101I (antibody, V domains shown) VH: EVQLLESGGGLVQPGGSLRLSCAASGFTFSKYFMFWVRQAPGKGLEWVSVISPSGGMTRYADSVKGRFTISRDNSKNTLYLQMNSLRAEDTAVYYCARVGIGGNSDYWGQGTLVTVSS VL: DIQMTQSPSSVSASVGDRLTIICRASQDINRWLAWYQQTPGNAPKLLIHSATSLQSGVPSRFSGSGSGTDFTLTINSLQPEDFATYYCQQADSFPLTFGGGTKVEIK |
| 0.04 fold |  | 0.04 fold | C5A (XPA23) VH Y101A (antibody, V domains shown) VH: EVQLLESGGGLVQPGGSLRLSCAASGFTFSKYFMFWVRQAPGKGLEWVSVISPSGGMTRYADSVKGRFTISRDNSKNTLYLQMNSLRAEDTAVYYCARVGAGGNSDYWGQGTLVTVSS VL: DIQMTQSPSSVSASVGDRLTIICRASQDINRWLAWYQQTPGNAPKLLIHSATSLQSGVPSRFSGSGSGTDFTLTINSLQPEDFATYYCQQADSFPLTFGGGTKVEIK |
